A short description of this data set: soluble on expression in E. coli; label from the status in PepcDB or PDB records.
In the case of “MSQPRTVTVLGATGSIGHSTLDLIERNLDRYQVIALTANRNVKDLADAAKRTNAKRAVIADPSLYNDLKEALAGSSVEAAAGADALVEAAMMGADWTMAAIIGCAGLKATLAAIRKGKTVALANKESLVSAGGLMIDAVREHGTTLLPVDSEHNAIFQCFPHHNRDYVRRIIITASGGPFRTTSLAEMATVTPERAVQHPNWSMGAKISIDSATMMNKGLELIEAFHLFQIPLEKFEILVHPQSVIHSMVEYLDGSILAQIGSPDMRTPIGHTLAWPKRMETPAESLDFTKLRQMDFEAPDYERFPALTLAMESIKSGGARPAVMNAANEIAVAAFLDKKIGFLDIAKIVEKTLDHYTPATPSSLEDVFAIDNEARIQAAALMESLPA”, the “soluble on expression in E. coli” value is “soluble”.
Under “MSPGPQSGGQERGSMERKMVELEDTGLTFATEVDLERLQALAAEWLQVIGEDPGREGLLKTPERVAKAWAFLTRGYRQRLEEVVGGAVFPAEGSEMVVVKGVEFYSMCEHHLLPFFGKVHIGYIPDGKILGLSKFARIVDMFARRLQVQERLAVQIAEAIQEVLEPQGVGVVVEGVHLCMMMRGVEKQHSRTVTSAMLGVFRENQKTREEFLSHLRDGTA” stands “soluble”; under “MGSDKIHHHHHHMNKYIYLLAVVFGLSSCNDFLELSPTNKVIETDYYKTQEDLTEALVAAYDPLKWNAYNAYSSYELVSNIMSDDAETGGSTVSDQPQLQRVNDFTNWVTPTNLPEGLWGRSYEGVNRANIVIEKCPLLPEGTMSAELRDRYVAEAHFLRVFYYFQLWRFFGYIPYYETNLGLDDITTVPQLQPDEVYAKLIEDLDNNVIGKLPKVVPANEKGRATNGAAIAMKARIVLYQNDDTKMKEIASQLKELITDPAYQYDLIPDYKVLFDDEYEWCKESVFEVNYTEIGNSNDWAGKANQGNSDIIMLGARGLKDPNNVYVEGWGFAPVTKALNDAFLPDDPRKWTTIIDHEEFRAEGGTISSDVNQYTGYSVRKYHPRAGYSSTVGTEALNYKNNYRVIRFSDILLMASEALLRSGGSVGEAQDYYARVVKRAMGDDYKVPTVSLDNIYKERRYEFAMEGIRYWDLVRTNQAKDFIKGWDDTKKYLPIPQSEIDKSDGHLVQNPHF”, “not soluble”; under “MGSDKIHHHHHHMTLDAVLTQIDTDLDAAMARLMALLRVPSISTDPAFDADVARAAQILCDDLTGLGFDASVRETTGHPMVVAHGDDTGPHVLFYGHYDVQPVDPLDLWDRDPFDPIIEEQNGKKVIRARGASDDKGQLMTFIEACRAWKAVTGKLPAKVTIFLEGEEESGSPSLVPFMEAHKDELTAEVALICDTGLFAEGVPAIVTQLRGMLQEEITVTGPRIDLHSGMFGGIAMNPIRVLSGVLAGLHDANGSVTVPGFYEGVPDISDDLRASWDALGFVPEAFLGPVGLSHPAGEAGRSGLEMIWSRPTAEVNGVWGGYTGAGFKTVLPSQAHAKISFRLVAGQDPDRLHENFVDWVTAQMPPDCTVSITQIAGSRASQMDTSHPIFETTRQALSDEWPNEAAYIGCGGSIPVAGHFKTILGMDSVLAGFGKDDDAIHSPNEKYDVESFHRGIRSWARVLGGLSEV”, “not soluble”.
Regarding “MLIREIEKKDNEQVETLIRTCLIEFGADKPGCAWTDPDLGRFYEIYQDKKSKYWVVEEEGKIIAGCGIGPLNGAENVCELQKMYSYKEARGTGIAKDLLGLALDFAKKYYDKCYLETFSNMTAANKFYVKNGFKKLEKPLIETDHYACDVWYIKEL”, the “soluble on expression in E. coli” value is listed as “not soluble”.
“MGSDKIHHHHHHMSDQRYNLRGVSASKEDVHNAIKNIDKGIFPKAFCKIIPDILGGDPEYCNIMHADGAGTKSSLAYMYWKETGDLSVWKGIAQDALIMNIDDLLCVGAVDNILVSSTIGRNKLLVPGEVISAIINGTDELLAELREMGVGCYATGGETADVGDLVRTIIVDSTVTCRMKRSDVIDNKNIQGGDVIVGLASSGQATYEKEYNGGMGSNGLTSARHDVFSKYLAKKYPESYDAAVPKELVYSGGLKLTDKIEELGIDAGKMVLSPTRTYAPVIKVLLDKLRSQIHGMVHCSGGAQTKVMHFVENKRVTKDNLFPIPPLFRTIQEQSGTDWSEMYKVFNMGHRMEIYIAPEHAEEVIGISKSFGIDAQIVGFVEEADKNELIIESEKGRFTY”: the “soluble on expression in E. coli” value is listed as “not soluble”.
With “MGSDKIHHHHHHMKPERILNVPGAVNFRELGGYQTKFNQTIKWQKLLRSGELSHLTPRTQALLADYGLKYDIDLRSPAEASWSSDKIPAQTIYRFYPVYPIQDNEKSDLPQNKHLKYQAYEQSLYDPYLTMAFSEHSRIAFHQMFVDLLANTNEKESLLFHCAAGKDRTGMAGMLILSALQVPYQTIREDYLLTNLVYSNQDPDELRRQITGKHVDKLIQKMNSVFSVTASSLDHTHDLILDRFGSFDHYFKEALEFSDQDLADLRQIYLE”, the “soluble on expression in E. coli” value is given as “not soluble”.
For the sequence “MGSDKIHHHHHHMRSTDRLLFIDFLLKFENKNGTVIPCCVDNFDCTFTHKGGKSMYEKERKELYNAHLLLEKYGLVAYTSGNVSVRIGDHVLIKPSGVPYTELKPEDFVVVDLEGNVIEGEKKPSVDTATHLYLYKHLDWAKSVIHTHSTFAMVWAILEKSIPVLCTAHADVFGEEIPLTEYAPVGSEAIGKAVVKVIGKSGAVLLRKHGVMIVGTSVDDAVKKAIFLEEVAKAAYFATLAGKPTPLPPDEVDHLYNQYHTKYGQK”, the “soluble on expression in E. coli” value is reported as “not soluble”.
Under “MGSDKIHHHHHHMNQQTAAAQSTGVQAGTESSLLDEIVEKSKVAKSESEHARAKDLIGELVSQVLDGTVVVSDNLSATIDARVAELDRLISSQLSAVMHAAEFQRLESTWRGLDYLVKESNTGSTIKIKALHAPKRDLVRDFKNATEFDQSALFKKVYEEEFGTFGGSPFGVLVGDYEISRQPEDQYFIEQMSHVAAAAHAPFIASAAPELLGLESFADLGKPRDLGKVFDTVEYAKWKSFRDSEDSRYVGLTLPRFLGRLPFNPKDGAIAESFNFVEDVDGTDHDKYLWCNASWAFAARLTAAFDDFGWCAAIRGVEGGGLVEDLPTHTFKTDDGEIALKCPTEIAITDRREKELSDLGFIPLVHCKNSDYAAFFAAQSVQKPKKYSTDSANANAVLSAQLQYIFSVSRIAHYLKAMMRDKIGSFASAQNVETFLNRWISQYVLLDDDATQEQKAQFPLREASVQVSEIPGKPGAYRSVAFLRPHFQLDELSISLRLVADLPKPANS” stands “not soluble”; under “MARFLLIIGCATLAALASCESKSGEETPQYWRAILGDICQLPSFPRATGDPTRYVECVRQSSFAADRKDLGIWLLRECLPGYEFVASARRCKTVRSVNKQQELCESANATEYNFCPTASAMQFLVEETREAPRQCACPNGEQNCVCPSPEILEPISAVKKVRRSAQQQPLRFSQYPSCPCPQNQPACTCSTNNQQNEQILVSISCCQQQETTTQAPVQMQPCQCTPTQIQQNCQTTTTQQQYCPQQSAPVVQPQPCPLVQGSGVQNAQYQGICSWMIDPLATDPQSRTHYLQCQPAPNNLFCGRWQRMPCAPGTVFDVQSQVCVWDTNSQPGTLPTPAPYVSTQAPQNAQCGCTGGVQIGSCNQNYQCPGQSVCQVGQNAGQQCMVCCYFRKKARRF”, “not soluble”; under “MEEMRVIGLLSSGIDSPVAIHLMASRGAEVYPLHFRQDEIKEKKARKLVSRLKEIHGEKVKDLKVVDALKVQGPVFEKLRELKREKWICIFCKYTMYMVAEKYAREVGAEAIVTGDSLGQVASQTLDNLMVISTATNLPIIRPLIALDKEEIVRIAKEIGTFEISIENEPPCPFLPKFPVVRAGFSQFRKILEEIREVLPK”, “soluble”.
For the sequence “MSLFKIRMPETVAEGTRLALRAFSLVVAVDERGGIGDGRSIPWNVPEDMKFFRDVTTKLRGKNVKPSPAKRNAVVMGRKTWDSIPPKFRPLPGRLNVVLSSTLTTQHLLDGLPDEEKRNLHADSIVAVNGGLEQALQLLASPNYTPSIETVYCIGGGSVYAEALRPPCVHLLQAIYRTTIRASESSCSVFFRVPESGTEAAAGIEWQRETISEELTSANGNETKYYFEKLIPRNREEEQYLSLVDRIIREGNVKHDRTGVGTLSIFGAQMRFSLRNNRLPLLTTKRVFWRGVCEELLWFLRGETYAKKLSDKGVHIWDDNGSRAFLDSRGLTEYEEMDLGPVYGFQWRHFGAAYTHHDANYDGQGVDQIKAIVETLKTNPDDRRMLFTAWNPSALPRMALPPCHLLAQFYVSNGELSCMLYQRSCDMGLGVPFNIASYALLTILIAKATGLRPGELVHTLGDAHVYSNHVEPCNEQLKRVPRAFPYLVFRREREFLEDYEEGDMEVIDYAPYPPISMKMAV”, the “soluble on expression in E. coli” value is listed as “soluble”.
Turning to “MGSDKIHHHHHHVTALPYLIEPLVLPAAVDSPDAGAFREFGELSDALVLETWGNADRSSPQEARLQYWRDNPYTQLRLFFVWLDGRMVARSWIRFGIQENVHTAVLHVNVLAEFSGRGIGRALLRHAEELAAARGCTTLQTFTEHPADFDAGGAGVLKPETGTGGVPAAARGVRFALAAGYRLEQVERFSALELPLAGDTLAALETEALEKSGEQYELLHWTDRCPDGLAQQLAVLMSRMSTDTPVGALNYDEESWDVARVRHVEDTWQKAGLASLVAGARHRATGELAAYSVLQVSDAKPWLANQDDTLVASHHRGHRLGMLVKILNIRRLLAGYPGVERIITFNAAENDHMLAINVALGFHPEGYDGEWQKAL”, the “soluble on expression in E. coli” value was “not soluble”.
“MGSDKIHHHHHHVKKSESLPVLIVTGLSGAGKSTVLNVFEDLRFFTIDGLPVGVVADLLEHLARDAMGRYRGVVLGMDLRQFDFLDEFEGALMRLEKMGVSPRIIYLEADSDTLVRRFATTRRPHPLEGGDLGLEAAVEHERNLLAPVRERADLILDTSEFSIHDLRRIVQKKWSSLGGSLRSLRVNLITFGFKYGVPSDADMVFDLRFLPNPYFDAKLKALSGKDPEIQQFVLGCEQGKTFFKRFLDFLLFLLPQYEAEGRYRITLAIGCTGGRHRSVSTAEALRDALKKSDYAVSLEHRHIDLG”: the “soluble on expression in E. coli” value is recorded as “not soluble”.
Regarding “MGSSHHHHHHGGTGENLYFQGGSGMSRVPRPHIHQRISVEDIMKGNRRTLAKAITLAESSNPADSTRLGNLLREIHQMATVRTVPRFALSGSPGSGKSSLLDTLGYYLCEKKNMHVGVLAVDPSSTITHGSILGDKTRMEKLGTHLNSYIRPSPSGGHLGGVTSRAWEALEIFEAARFDVVFVETVGVGQSETQCKDLTDMMILLVPPASGDELQGIKKGVVEVADMVVVTKNDGRRKPLVQQTMSAYARAVMYTEEKQGFEKPVIAVSAEEGTNVPELWEAMLKMWNARLESGQIAHLRRAQSTKHFYNYFEMELLAKARRMTNLEMQNMAHRVWEHEMTPREAGDIMVLRTLREHLAADAAVQHDAGKRA”, the “soluble on expression in E. coli” value is reported as “not soluble”.
Under “MGSDKIHHHHHHVSKILIIYSSVHGQTRKLCDFMQRELEALEHSVTCASIDNPPAMEGFDKIVLGASIRHGKHNPRVYDFIRENIKVLQEKASSFFSVSLVARKPAKNTPETNPYMQAFLAKSPWQPKLLAVFGGNLDYQGYNALDRNIIRFIMWITKGPTAPDTKVEYTDWDKVKHYAQQVDAL” stands “not soluble”; under “MGSDKIHHHHHHMRPAPSIVEVVAAIIIGSDGSFLLARRPEGKPYAGYWEFPGGKVNPEESLLRALKRELLEELGIHVKHAYPWITRTFTYPHARVRLHFYRVVEWHGEPHPHEDQELSWQFADNVSVEPLLPANAPVLRALALPPVYGITNAAEWGPQIAAARIGHALQKGLRLVQLREKGMRSKALDAFAREVTALAHHYGARILVNSGTGNESLCQELDMDGIHFTSADLMNLSKRPDVEWCAASCHNAEELFRAEQLEMDFAVLAPVLPTLSHPDSPVLGWRKLARIIHGSAIPVYALGGLQSEDLAIAWEHGAHGIALMRRIEQVRGTGQKA”, “not soluble”.

For the origin of these results see the DeepSol protein solubility set.
